Test [1] addresses T1, human complement component C5 (human, UniProt P01031 19-673; P01031 678-1676).
T1 construct: mature; Mature C5 is a disulphide-linked beta and alpha chain cut from one precursor; Terbium-labelled in the FRET assays, biotinylated in part of the phage ELISA; also called human C5; C5-Tb
Description: SPR single-cycle kinetics (Biacore 8K), C5 amine-coupled to a CM5 chip. (Surface plasmon resonance follows binding to a sensor surface in real time, without labels.)

Test [2] concerns the target T2, ovalbumin (UniProt P01012 2-386).
T2 sequence (looked up): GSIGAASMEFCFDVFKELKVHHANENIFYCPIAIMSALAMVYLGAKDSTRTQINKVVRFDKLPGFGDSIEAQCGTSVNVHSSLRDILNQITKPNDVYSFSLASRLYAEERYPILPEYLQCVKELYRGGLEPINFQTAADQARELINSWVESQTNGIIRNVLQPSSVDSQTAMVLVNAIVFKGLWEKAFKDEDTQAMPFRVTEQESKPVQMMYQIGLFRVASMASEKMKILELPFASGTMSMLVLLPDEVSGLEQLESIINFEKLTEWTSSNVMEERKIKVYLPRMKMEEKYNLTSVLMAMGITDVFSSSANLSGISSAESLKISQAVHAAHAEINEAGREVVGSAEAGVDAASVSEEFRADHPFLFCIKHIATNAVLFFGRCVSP
Briefly: counter screen. A general note: The purpose of a counterscreen is to sort out artefacts and off-target activity.

The target of test [3] is T3, human complement component C3 (human, UniProt P01024 23-667; P01024 672-1663).
T3 construct: also called biotinylated C3
Description: counter screen.

In test [4] the target is T1, human complement component C5. Description: SPR single-cycle kinetics.
The target is the same in test [5].
Test [6] shares this target. Description: cell-based or functional assay.
The target is the same in test [7]. The source holds these as a separate data set.
Test [8] concerns the target T4, mouse C5 (mouse, UniProt P06684 19-674; P06684 679-1680).
T4 construct: mature; also called mouse C5 protein
Description: SPR single-cycle kinetics, n=1.

Test [9] has as its target T5, rabbit C5 (rabbit).
T5 construct: mature; also called rabbit C5 protein
Briefly: SPR single-cycle kinetics, n=1.

Test [10] addresses T1, human complement component C5. Briefly: cell-based or functional assay. The source holds these as a separate data set.
Test [11] shares this target. Description: cell-based or functional assay. The source holds these as a separate data set.
Test [12] shares this target. Briefly: cell-based or functional assay. This is another data set of the same source.
For test [13] the target is unchanged. The source holds these as a separate data set.
Test [14] has the same target. The source holds these as a separate data set.
Test [15] has the same target. This is another data set of the same source.
The target is the same in test [16]. Description: cell-based or functional assay. This is another data set of the same source.
For test [17] the target is unchanged. Description: cell-based or functional assay. The source holds these as a separate data set.
The target is the same in test [18]. Briefly: cell-based or functional assay. The source holds these as a separate data set.
For test [19] the target is unchanged. Description: SPR multi-cycle kinetics, human C5 immobilised, mean of n=3.
Test [20] has the same target. Briefly: cell-based or functional assay. This is another data set of the same source.
For test [21] the target is unchanged. Description: SPR single-cycle kinetics, human C5, n=1.
Test [22] has the same target. Briefly: cell-based or functional assay. This is another data set of the same source.
For test [23] the target is unchanged. Briefly: cell-based or functional assay. This is another data set of the same source.
Test [24] shares this target. Description: phage ELISA, OD 630 nm, anti-M13 HRP; C5 coated directly and biotinylated C5 captured on streptavidin. For orientation: In an ELISA, binding on a coated surface is turned into a signal by an enzyme label.
The target is the same in test [25]. Description: SPR (Biacore), C5, mean of n=3.
Test [26] has as its target T3, human complement component C3. Briefly: SPR (Biacore), C3, mean of n=3.
The target in test [27] is T1, human complement component C5. Briefly: cell-based or functional assay. This is another data set of the same source.

Experimental findings from patent US20240024520A1 (UCB, published 2024) are described below.

Where “and” joins values, the source holds several entries; their conditions need not be identical. Identical values can stand only once. Like-named read-outs stand apart in the source and are kept apart here. Ends that are not written are not given here.

A word on the Kd: it is the concentration at which binding is half-saturated. The low end stands for higher affinity, the high end for lower affinity. One may read the koff as a measure of how fast the partners let go of each other. A low value points to slow dissociation. For orientation: kon means a measure of how fast the partners come together. As usually defined, the IC50 is the concentration that gives 50% inhibition. A higher IC50 goes with lower potency. In general, Ki refers to the equilibrium dissociation constant of an inhibitor or competing ligand from its target. A higher Ki goes with a looser hold on the target.

T1 sequence (P01031 19-673 limits assumed, chain 1 of 2): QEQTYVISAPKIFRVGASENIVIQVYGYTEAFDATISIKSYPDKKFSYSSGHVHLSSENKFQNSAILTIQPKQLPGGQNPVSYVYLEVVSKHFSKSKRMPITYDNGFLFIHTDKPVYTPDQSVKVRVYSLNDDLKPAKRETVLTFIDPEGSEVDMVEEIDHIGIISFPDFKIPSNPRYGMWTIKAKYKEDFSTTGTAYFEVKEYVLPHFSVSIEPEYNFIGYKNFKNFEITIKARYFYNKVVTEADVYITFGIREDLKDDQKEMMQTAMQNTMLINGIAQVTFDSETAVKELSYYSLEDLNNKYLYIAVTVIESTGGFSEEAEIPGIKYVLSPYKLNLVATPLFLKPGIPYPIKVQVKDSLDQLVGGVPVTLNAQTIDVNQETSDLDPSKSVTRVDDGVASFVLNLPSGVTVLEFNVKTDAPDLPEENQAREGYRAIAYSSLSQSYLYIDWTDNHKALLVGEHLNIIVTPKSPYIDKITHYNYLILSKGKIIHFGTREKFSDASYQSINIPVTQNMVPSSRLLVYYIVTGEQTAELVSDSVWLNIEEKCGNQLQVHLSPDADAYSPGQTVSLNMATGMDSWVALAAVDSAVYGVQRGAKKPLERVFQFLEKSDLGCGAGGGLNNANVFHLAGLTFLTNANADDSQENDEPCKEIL
T1 sequence (P01031 678-1676 limits assumed, chain 2 of 2): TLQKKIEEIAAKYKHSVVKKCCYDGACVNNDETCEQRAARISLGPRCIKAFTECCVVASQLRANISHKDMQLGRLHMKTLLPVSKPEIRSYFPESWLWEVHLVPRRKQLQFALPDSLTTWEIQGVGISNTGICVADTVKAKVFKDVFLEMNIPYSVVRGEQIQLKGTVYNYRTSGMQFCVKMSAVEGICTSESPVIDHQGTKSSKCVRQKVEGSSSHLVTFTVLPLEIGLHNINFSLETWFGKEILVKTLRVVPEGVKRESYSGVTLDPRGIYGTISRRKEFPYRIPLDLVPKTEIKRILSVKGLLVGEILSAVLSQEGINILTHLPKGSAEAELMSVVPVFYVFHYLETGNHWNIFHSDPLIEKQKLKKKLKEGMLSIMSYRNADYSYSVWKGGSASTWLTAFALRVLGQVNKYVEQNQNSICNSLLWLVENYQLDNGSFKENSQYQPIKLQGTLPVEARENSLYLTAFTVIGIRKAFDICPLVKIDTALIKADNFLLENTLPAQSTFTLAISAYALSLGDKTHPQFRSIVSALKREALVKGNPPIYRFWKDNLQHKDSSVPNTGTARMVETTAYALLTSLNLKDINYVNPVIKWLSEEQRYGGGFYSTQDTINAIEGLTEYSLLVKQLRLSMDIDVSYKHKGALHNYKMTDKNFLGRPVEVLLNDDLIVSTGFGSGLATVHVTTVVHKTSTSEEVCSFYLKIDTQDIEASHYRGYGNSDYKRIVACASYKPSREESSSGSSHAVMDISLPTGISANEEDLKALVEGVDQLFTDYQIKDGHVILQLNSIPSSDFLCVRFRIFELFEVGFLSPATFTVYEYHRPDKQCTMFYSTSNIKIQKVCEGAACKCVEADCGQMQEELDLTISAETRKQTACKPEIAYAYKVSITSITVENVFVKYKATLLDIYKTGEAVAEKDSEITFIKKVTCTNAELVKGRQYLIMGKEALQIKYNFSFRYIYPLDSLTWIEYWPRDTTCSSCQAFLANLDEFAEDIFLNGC
T4 sequence (P06684 19-674 limits assumed, chain 1 of 2): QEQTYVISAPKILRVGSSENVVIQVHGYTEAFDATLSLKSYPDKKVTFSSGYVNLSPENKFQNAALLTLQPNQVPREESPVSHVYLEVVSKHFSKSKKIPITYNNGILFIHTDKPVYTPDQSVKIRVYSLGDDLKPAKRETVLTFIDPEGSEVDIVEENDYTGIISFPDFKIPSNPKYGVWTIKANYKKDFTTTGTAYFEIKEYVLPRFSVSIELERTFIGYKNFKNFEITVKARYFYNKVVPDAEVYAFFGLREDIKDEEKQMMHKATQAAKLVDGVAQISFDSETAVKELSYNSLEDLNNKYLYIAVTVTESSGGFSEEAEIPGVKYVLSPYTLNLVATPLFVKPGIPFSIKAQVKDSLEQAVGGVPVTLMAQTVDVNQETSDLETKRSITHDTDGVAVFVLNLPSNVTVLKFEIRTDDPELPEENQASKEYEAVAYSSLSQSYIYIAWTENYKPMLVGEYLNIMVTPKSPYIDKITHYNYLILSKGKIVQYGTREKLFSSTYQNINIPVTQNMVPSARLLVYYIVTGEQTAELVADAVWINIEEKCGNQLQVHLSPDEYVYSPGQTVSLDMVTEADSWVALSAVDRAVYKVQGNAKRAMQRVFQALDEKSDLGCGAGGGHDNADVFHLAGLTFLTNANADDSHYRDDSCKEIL
T4 sequence (P06684 679-1680 limits assumed, chain 2 of 2): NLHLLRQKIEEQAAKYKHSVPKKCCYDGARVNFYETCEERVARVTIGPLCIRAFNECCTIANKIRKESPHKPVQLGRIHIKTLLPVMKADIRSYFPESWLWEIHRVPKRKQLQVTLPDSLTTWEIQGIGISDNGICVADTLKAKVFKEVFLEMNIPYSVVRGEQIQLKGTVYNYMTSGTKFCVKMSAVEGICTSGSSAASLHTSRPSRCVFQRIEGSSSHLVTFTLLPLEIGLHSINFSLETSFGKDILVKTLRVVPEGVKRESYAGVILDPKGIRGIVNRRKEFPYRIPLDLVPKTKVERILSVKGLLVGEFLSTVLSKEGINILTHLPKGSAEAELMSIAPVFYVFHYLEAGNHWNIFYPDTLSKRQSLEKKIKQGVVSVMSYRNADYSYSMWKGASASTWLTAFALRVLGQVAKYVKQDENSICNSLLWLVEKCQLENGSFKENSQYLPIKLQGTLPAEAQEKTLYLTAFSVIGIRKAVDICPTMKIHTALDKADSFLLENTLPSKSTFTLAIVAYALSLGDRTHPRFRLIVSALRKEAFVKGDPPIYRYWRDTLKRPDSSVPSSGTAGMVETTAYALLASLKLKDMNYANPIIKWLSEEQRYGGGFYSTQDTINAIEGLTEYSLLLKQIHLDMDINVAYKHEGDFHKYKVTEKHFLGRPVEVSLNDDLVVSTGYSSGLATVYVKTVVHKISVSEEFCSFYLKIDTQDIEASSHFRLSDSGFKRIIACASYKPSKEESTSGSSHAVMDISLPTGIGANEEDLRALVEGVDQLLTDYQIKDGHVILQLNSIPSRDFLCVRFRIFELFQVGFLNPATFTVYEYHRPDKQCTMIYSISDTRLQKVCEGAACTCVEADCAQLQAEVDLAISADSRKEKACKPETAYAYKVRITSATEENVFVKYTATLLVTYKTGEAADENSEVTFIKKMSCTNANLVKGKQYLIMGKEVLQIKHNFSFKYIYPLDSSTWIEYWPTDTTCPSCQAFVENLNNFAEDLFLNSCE
T3 sequence (P01024 23-667 limits assumed, chain 1 of 2): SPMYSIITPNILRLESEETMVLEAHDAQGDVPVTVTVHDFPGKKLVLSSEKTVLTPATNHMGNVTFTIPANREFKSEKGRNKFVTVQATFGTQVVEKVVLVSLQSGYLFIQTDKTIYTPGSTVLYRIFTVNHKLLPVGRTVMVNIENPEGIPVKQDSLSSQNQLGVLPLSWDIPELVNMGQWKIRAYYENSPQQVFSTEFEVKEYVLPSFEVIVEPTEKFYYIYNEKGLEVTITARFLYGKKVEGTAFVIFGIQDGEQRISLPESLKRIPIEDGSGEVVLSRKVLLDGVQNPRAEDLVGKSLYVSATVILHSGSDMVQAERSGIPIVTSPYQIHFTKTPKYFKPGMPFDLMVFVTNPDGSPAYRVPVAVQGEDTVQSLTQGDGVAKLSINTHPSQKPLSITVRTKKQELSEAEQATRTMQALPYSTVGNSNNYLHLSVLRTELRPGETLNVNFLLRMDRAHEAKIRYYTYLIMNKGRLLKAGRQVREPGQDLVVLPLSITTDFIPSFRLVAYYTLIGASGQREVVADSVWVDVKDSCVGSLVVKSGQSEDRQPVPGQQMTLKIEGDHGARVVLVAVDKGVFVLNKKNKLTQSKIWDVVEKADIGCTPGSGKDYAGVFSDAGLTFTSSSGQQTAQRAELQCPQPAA
T3 sequence (P01024 672-1663 limits assumed, chain 2 of 2): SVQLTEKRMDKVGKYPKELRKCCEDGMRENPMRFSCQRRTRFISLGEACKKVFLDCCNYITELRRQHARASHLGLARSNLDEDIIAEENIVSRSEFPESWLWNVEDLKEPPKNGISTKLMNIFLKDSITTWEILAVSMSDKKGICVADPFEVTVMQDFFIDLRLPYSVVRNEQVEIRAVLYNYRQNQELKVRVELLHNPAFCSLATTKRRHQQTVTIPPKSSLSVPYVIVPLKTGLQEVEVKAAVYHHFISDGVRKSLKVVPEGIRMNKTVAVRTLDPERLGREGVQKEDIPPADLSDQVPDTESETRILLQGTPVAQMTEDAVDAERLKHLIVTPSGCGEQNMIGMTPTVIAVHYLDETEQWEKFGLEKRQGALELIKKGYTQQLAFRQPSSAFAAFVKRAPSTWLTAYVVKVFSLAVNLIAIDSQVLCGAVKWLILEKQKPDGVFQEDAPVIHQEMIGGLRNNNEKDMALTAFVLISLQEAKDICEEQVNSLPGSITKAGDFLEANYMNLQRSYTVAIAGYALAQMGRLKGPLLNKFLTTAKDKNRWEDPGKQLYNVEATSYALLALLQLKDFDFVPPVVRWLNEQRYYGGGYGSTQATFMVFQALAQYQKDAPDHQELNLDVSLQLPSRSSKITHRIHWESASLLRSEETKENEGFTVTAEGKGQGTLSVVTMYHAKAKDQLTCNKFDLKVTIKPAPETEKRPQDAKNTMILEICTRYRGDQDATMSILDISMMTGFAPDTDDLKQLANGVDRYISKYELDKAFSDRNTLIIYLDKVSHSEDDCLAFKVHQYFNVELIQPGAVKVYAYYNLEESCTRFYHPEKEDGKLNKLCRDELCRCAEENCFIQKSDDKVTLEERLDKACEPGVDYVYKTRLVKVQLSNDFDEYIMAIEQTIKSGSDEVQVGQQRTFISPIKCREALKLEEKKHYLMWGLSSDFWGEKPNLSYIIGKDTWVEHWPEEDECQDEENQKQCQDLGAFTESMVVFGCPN

Take GSKSCREGYIDGGGCCLPGSCRGCACSYYDWLKCPRDCRGTSEEENLYFQ (Recombinant, cut out by TEV protease) [K60 knob domain peptide cleaved from the 645 Fab]: the binding result in test [1], in [2] and in test [3] was “no binding” throughout.

B1: K92 knob domain peptide cleaved from the 645 Fab (peptide)
peptide: GSGSVTCPEGWSECGVAIYGYECGRWGCGHFLNSGPNISPYVTTGSENLYFQ
notes: Recombinant, cut out by TEV protease
Consider B1, for which, in test [4], the Kd was less than 40 nM. Also, in [5], the Kd was less than 0.85 nM, the koff worked out at 0.000113 s⁻¹ and the kon came out at 124000 M⁻¹ s⁻¹. Also, in [6], the “Inhibition of alternative pathway mediated C5a release, average Emax” value was 43.3% and the “Inhibition of alternative pathway mediated C5a release, geomean IC50” value amounted to 43.3 nM. In test [7], the IC50 is 7.6 nM and 7.4 nM and 7.3 nM; the Ki was determined as 3.7 nM. In addition, the binding result in [2] was “no binding”. The binding result in test [3] was “no binding”. In test [8], this molecule gave a Kd of 63.1 nM, a koff of 0.00487 s⁻¹ and a kon of 77200 M⁻¹ s⁻¹. In [9], the Kd was 76.6 nM, the koff is 0.00466 s⁻¹ and the on-rate constant (kon) was 60800 M⁻¹ s⁻¹. In test [10], the “Inhibition of alternative pathway mediated bacterial lysis, average Emax” value was 91% and the “Inhibition of alternative pathway mediated bacterial lysis, geomean IC50” value came out at 2460 nM.

B2: K8 knob domain peptide cleaved from the 645 Fab (peptide)
peptide: GSVCPDGFNWGYGCAAGSSRFCTRHDWCCYDERADSHTYGFCTGNRVENLYFQ
notes: as for B1
Molecule B2 showed a Kd in test [4] of less than 40 nM. Besides, the “Inhibition of classical pathway mediated C5a release, geomean IC50” value in test [11] came to 9.9 nM. Also, in test [5], the Kd worked out at 17.3 nM, the off-rate (koff) was determined as 0.000357 s⁻¹ and the kon came out at 26100 M⁻¹ s⁻¹. In addition, the “Inhibition of classical pathway mediated bacterial lysis, geomean IC50” value in [12] was determined as 16900 nM. Further, in test [6], the “Inhibition of alternative pathway mediated C5a release, average Emax” value came out at 71.8% and the “Inhibition of alternative pathway mediated C5a release, geomean IC50” value is 150 nM. Moreover, in test [7], the IC50 is 20.7 nM and 31.2 nM and 26.1 nM and 25.6 nM; the affinity corresponds to a Ki of 12.8 nM. The binding result in test [2] was “no binding”. Moreover, the binding result in [3] was “no binding”. In [8], this molecule yielded a Kd of 4.69 nM, a koff of 0.00019 s⁻¹ and a kon of 40400 M⁻¹ s⁻¹. In addition, in [9], the Kd was found to be 9.12 nM, the koff came to 0.000296 s⁻¹ and the kon came out at 32400 M⁻¹ s⁻¹. Further, in test [10], the “Inhibition of alternative pathway mediated bacterial lysis, average Emax” value was 98.1% and the “Inhibition of alternative pathway mediated bacterial lysis, geomean IC50” value was 25800 nM.

B3: PGT121 Fab-K136 knob domain fusion protein (Fab)
heavy: QMQLQESGPGLVKPSETLSLTCSVSGASISDSYWSWIRRSPGKGLEWIGYVHKSGDTNYSPSLKSRVNLSLDTSKNQVSLSLVAATAADSGKYYCARTLHGRRIYGSENLYFQGTCPDNYREVDGCDPYDCCLTTWCTNSYCTRYIENLYFQGSEWFTYFYMDVWGNGTQVTVSSASTKGPSVFPLAPSSKSTSGGTAALGCLVKDYFPEPVTVSWNSGALTSGVHTFPAVLQSSGLYSLSSVVTVPSSSLGTQTYICNVNHKPSNTKVDKRVEPKSCDKTLEENLYFQGSGGSHHHHHHHHHH
light: QSVLTQPPDISVAPGETARISCGEKSLGSRAVQWYQHRAGQAPSLIIYNNQDRPSGIPERFSGSPDSPFGTTATLTITSVEAGDEADYYCHIWDSRVPTKWVFGGGTTLTVLGQPKAAPSVTLFPPSSEELQANKATLVCLISDFYPGAVTVAWKADSSPVKAGVETTTPSKQSNNKYAASSYLSLTPEQWKSHRSYSCQVTHEGSTVEKTVAPTECS
Turning to B3, the Kd in [13] was 46.3 nM and 115 nM and 73 nM. In test [14], this molecule showed a Kd of less than 0.1 nM, a koff of less than 1e-05 s⁻¹ and a kon of 9520 M⁻¹ s⁻¹. Also, the equilibrium dissociation constant (Kd) in test [15] was 46.3 nM and 23.4 nM and 58.1 nM and 39.8 nM.

B4: K8 knob domain peptide, chemically synthesised, free energy method (peptide)
peptide: VCPDGFNWGYGCAAGSSRFCTRHDWCCYDERADSHTYGFCTGNRV
modifications: disulfide (positions not given here); not fully specified
notes: Disulphides formed in glutathione redox buffer; also called K8chemFE; K8chem
Take B4: in test [16], the “Alternative pathway C5b neoepitope ELISA, average Emax” value is 91.5% and the “Alternative pathway C5b neoepitope ELISA, geomean IC50” value was 46.1 nM. Further, the “classical pathway complement ELISA (C5b deposition); IC50 (read off the curve)” value in [17] is approximately 30 nM. In test [18], the “Classical pathway C5b deposition ELISA, average Emax” value is 47.3% and the “Classical pathway C5b deposition ELISA, geomean IC50” value is 9.8 nM. In [19], binding was put at a Kd of 5.46 nM, the koff amounted to 0.000385 s⁻¹ and the kon stood at 70500 M⁻¹ s⁻¹. Also, in test [20], the “alternative pathway complement ELISA (C5b deposition); IC50 (read off the curve)” value is approximately 80 nM. In test [21], this molecule returned a Kd of 12.1 nM, a koff of 0.000397 s⁻¹ and a kon of 32900 M⁻¹ s⁻¹.

B5: hC3nb1-K57 loop 1 with C-terminal single-chain Fc tag (bispecific antibody, not shown: a dimerising Fc or GST)
VHH: QVQLVETGGGLVQASGGGSGCPPGYKSGVDCSPGSECKWGCYAVDGRRYGGYGADSGVSGGGSGSLRLSCAASGSIFSLNAMGWFRQAPGKEREFVATINRSGGRTYYADSVKGRFTISRDNGKNMVYLQMHSLKPEDTAIYYCAAGTGWSPQTDNEYNYWGQGTQVTVSS
Regarding B5, the “classical pathway C5b neoepitope ELISA; IC50 (read off the curve)” value in [22] is approximately 50 nM. Moreover, the “alternative pathway C5b neoepitope ELISA; IC50 (read off the curve)” value in test [23] was approximately 200 nM.

B6: hC3nb1 VHH displayed on M13 phage (VHH)
VHH: QVQLVETGGGLVQAGGSLRLSCAASGSIFSLNAMGWFRQAPGKEREFVATINRSGGRTYYADSVKGRFTISRDNGKNMVYLQMHSLKPEDTAIYYCAAGTGWSPQTDNEYNYWGQGTQVTVSS
notes: not shown: poly-histidine, c-myc tag, M13 pIII
Consider B6, for which the binding result in test [24] was “no binding”.

B7: hC3nb1-K57 C-term with C-terminal single-chain Fc tag (bispecific antibody, V domains shown, not shown: a dimerising Fc or GST)
VH: QVQLVETGGGLVQAGGSLRLSCAASGSIFSLNAMGWFRQAPGKEREFVATINRSGGRTYYADSVKGRFTISRDNGKNMVYLQMHSLKPEDTAIYYCAAGTGWSPQTDNEYNYWGQGTQVTVSS
notes: also called hC3Nb1 C-Term
With B7, the Kd in [25] worked out at 0.271 nM; in [26], 0.302 nM.
TCPEGWSECGVAIYGYECGRWGCGHFLNSGPNISPYVST (also called chemical K92) [K92chemFE knob domain peptide]: in test [19], the Kd came to 0.411 nM, the koff stood at 0.000101 s⁻¹ and the kon turned out to be 283000 M⁻¹ s⁻¹. For the same molecule, the “alternative pathway haemolysis assay; IC50 (read off the curve)” value in test [27] was approximately 200 nM. For the same molecule, the “alternative pathway complement ELISA (C5b deposition); IC50 (read off the curve)” value in [20] was approximately 70 nM.

B8: hC3nb1-K57 loop 2 delta proline with C-terminal single-chain Fc tag (bispecific antibody, V domains shown, not shown: a dimerising Fc or GST)
VH: WFRQASGGGSGCPPGYKSGVDCSPGSECKWGCYAVDGRRYGGYGADSGVSGGGSKEREFVATINRSGGRTYYADSVKGRFTISRDNGKNMVYLQMHSLKPEDTAIYYCAAGTGWSPQTDNEYNYWGQGTQVTVSS
notes: also called hC3Nb1Loop2ΔP
B8 registered a Kd in test [25] of 0.864 nM. In [22], the “classical pathway C5b neoepitope ELISA; IC50 (read off the curve)” value is approximately 20 nM.
